This is an account of results in publication doi:10.1101/2024.08.08.606885.

The stoichiometry N is the number of molecules, sites or subunits per partner or assembly. In general, Kd refers to a measure of binding affinity in units of concentration. As a reminder, the koff is the rate constant with which the complex falls apart. The low end stands for a long-lived complex, the high end for a short-lived complex. For orientation: kon means a measure of how fast the partners come together. The low end stands for slower complex formation, the high end for faster complex formation.

Experiment [1] concerns the target SARS-CoV-2 BA.2.86 S (Acro Biosystems, SPN-C524y) (SARS-CoV-2). Briefly: cryo-EM structure.
The target of experiment [2] is SARS-CoV-2 JN.1 RBD (SARS-CoV-2) (UniProt P0DTC2). Briefly: BLI; […]; 10x kinetics buffer, […]; global fit, 1:1 binding model; […]. Background: In BLI a coated tip is dipped into the sample, and binding shifts an interference pattern.

Take “SARS-CoV-2 BA.2.86 S (Acro Biosystems, SPN-C524y) (domain or fragment)”: the stoichiometry N in experiment [1] was found to be 3.
Take “TRI2-2 homotrimeric miniprotein inhibitor (designed binder)”: in experiment [2], the Kd was determined as 6.19 nM, the koff amounted to 0.00175 s⁻¹ and the kon was 282000 M⁻¹ s⁻¹.
